ChEMBL document CHEMBL1151754, “Structural and mechanistic studies of mofegiline inhibition of recombinant human monoamine oxidase B” (J Med Chem, 2008)

Substrate: NCCCCc1ccccc1
Assay: Activity of human MAOB

B1: Amine oxidase [flavin-containing] B (Homo sapiens) (protein)
chain: MSNKCDVVVVGGGISGMAAAKLLHDSGLNVVVLEARDRVGGRTYTLRNQKVKYVDLGGSYVGPTQNRILRLAKELGLETYKVNEVERLIHHVKGKSYPFRGPFPPVWNPITYLDHNNFWRTMDDMGREIPSDAPWKAPLAEEWDNMTMKELLDKLCWTESAKQLATLFVNLCVTAETHEVSALWFLWYVKQCGGTTRIISTTNGGQERKFVGGSGQVSERIMDLLGDRVKLERPVIYIDQTRENVLVETLNHEMYEAKYVISAIPPTLGMKIHFNPPLPMMRNQMITRVPLGSVIKCIVYYKEPFWRKKDYCGTMIIDGEEAPVAYTLDDTKPEGNYAAIMGFILAHKARKLARLTKEERLKKLCELYAKVLGSLEALEPVHYEEKNWCEEQYSGGCYTTYFPPGILTQYGRVLRQPVDRIYFAGTETATHWSGYMEGAVEAGERAAREILHAMGKIPEDEIWQSEPESVDVPAQPITTTFLERHLPSVPGLLRLIGLTTIFSATALGFLAHKRGLLVRV
Protein B1 has a kcat of 1.82 s⁻¹.
